Source: patent publication US9540424B2, “Serum albumin binding molecules” (BRISTOL-MYERS SQUIBB COMPANY, priority 2010, dated 2017)

What was measured:
[1] = test system: HEK cells stably expressing human β-klotho; experiment: HEK β-Klotho pERK 1/2 assay; assay type: cell-based; settings: same dilutions as in parental HEK cells
Description: FGF21 induces ERK phosphorylation in the presence of β-klotho. Accordingly, the present HEK-β-klotho assay system was constructed to examine the functional activity of the FGF21-SABA fusions in vitro. Specifically, in vitro activity, potency (EC50) and efficacy (as a percentage of maximal activity observed from an FGF21 molecule that is not fused to a SABA), were determined for the SABA1-FGF21v1 (SEQ ID NO: 132) fusion protein, as measured in the HEK β-Klotho expressing stable cell pERK 1/2 assay using the non-fused His-tagged FGF21 (“FGFv1”; SEQ ID NO: 125) as a comparator.
A HEK cell line stably expressing human β-klotho was constructed. The human β-klotho construct encoded the full length protein under the control of a CMV promoter with a C-terminal FLAG tag. HEK 293 cells were transfected with the linearized cDNA using Lipofectamine 2000 (Invitrogen catalog #11668027) following the manufactures protocol using standard techniques. Positive clones were isolated after 14 days of selection in 600 ug/ml (Invitrogen catalog #10131) of geneticin in Dulbecco's Modified Eagle Medium with high glucose containing L-Glutamine, Hepes (Invitrogen catalog #12430054) and 10% FBS (HyClone catalog # SH30071). Positive stable clones were further characterized by Western Blot analysis and p-ERK activation by AlphaScreen (Perkin Elmer catalog # TGRES50K) analysis.
HEK cells stably expressing human β-klotho were plated at 20,000 cells/well in 96 well tissue culture plates in DMEM high glucose media (Gibco) containing 10% (v/v) FBS (Hyclone) and 600 μg/ml G418 (Gibco). The following day, the media was removed and replaced with DMEM high glucose media without serum and the cells were incubated overnight. The morning of the third day the serum free media was removed and the cells were incubated for a total of seven minutes with dilutions of the proteins made in PBS containing 3% (w/v) fatty acid free human serum albumin. Dilutions were tested in triplicate, one well on each of three plates. At the end of the seven minute incubation, the protein dilutions were removed and 100 μl of 1x AlphaScreen lysis buffer (Perkin-Elmer) was added per well and allowed to incubate with shaking for approximately 10-15 minutes. The plates containing the cellular lysates were frozen at −80° C. for at least 30 minutes or until ready to assay. Four μl from each well of thawed cell lysate was analyzed for pERK 1/2 using the Surefire AlphaScreen pERK 1/2 kit (Perkin Elmer) using 384 well white Proxiplates (Perkin Elmer) following the manufacturer's directions. Plates were incubated at room temperature for two hours in the dark and then read on an Envision 2103 Multiplate reader (Perkin Elmer). Data were analyzed using Graph Pad Prism software using a non-linear regression analysis.

[2] = test system: parental HEK cells, which do not express β-klotho; experiment: pERK 1/2 specificity assay in parental HEK cells; assay type: cell-based, human
Source text: FGF1 was used as a positive control in those experiments.

[3] = Pharmacokinetics of His-tagged FGF21 and SABA-FGF21 fusions in monkeys; assay type: in vivo, cynomolgus monkeys; settings: monkeys
Description: Various in vivo studies were conducted in mice and monkeys to characterize the pharmacokinetics of His-tagged FGF21 and SABA1-FGF21v1. An ELISA-based ligand binding assay was used to measure the His-tagged FGF21 and SABA1-FGF21v1 in all mouse and monkey plasma samples.
Following subcutaneous administration, His-tagged FGF21 was well absorbed.
Following subcutaneous administration, SABA1-FGF21v1 was well absorbed.

MuSA = MuSA (Mus musculus, UniProt P07724); experiment: SPR (Biacore T100) kinetics of FGF21-SABA1 fusions: MuSA; assay type: binding, murine; design: purchased Sigma A3559; settings: 37° C., up to 1 uM analyte
MuSA, sequence (P07724 25-608): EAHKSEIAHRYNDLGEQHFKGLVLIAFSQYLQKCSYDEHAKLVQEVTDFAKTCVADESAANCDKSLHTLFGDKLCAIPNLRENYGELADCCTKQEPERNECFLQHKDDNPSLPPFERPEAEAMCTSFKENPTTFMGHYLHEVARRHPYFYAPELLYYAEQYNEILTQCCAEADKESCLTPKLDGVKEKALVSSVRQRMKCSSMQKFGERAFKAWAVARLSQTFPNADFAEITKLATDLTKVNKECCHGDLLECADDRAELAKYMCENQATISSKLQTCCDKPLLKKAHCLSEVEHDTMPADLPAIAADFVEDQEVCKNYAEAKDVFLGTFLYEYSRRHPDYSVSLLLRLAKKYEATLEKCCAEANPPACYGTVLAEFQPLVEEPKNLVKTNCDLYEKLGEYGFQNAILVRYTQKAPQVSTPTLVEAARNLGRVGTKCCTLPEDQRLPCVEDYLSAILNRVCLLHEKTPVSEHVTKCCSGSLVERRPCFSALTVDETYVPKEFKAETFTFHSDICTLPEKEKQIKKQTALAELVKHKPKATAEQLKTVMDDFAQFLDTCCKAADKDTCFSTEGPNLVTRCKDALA
Description: (§1) The binding competency and thermodynamic characterization of FGF21-SABA fusion variants to human serum albumin were performed using Isothermal Titration calorimetry on a Microcal VP-ITC instrument (Microcal Inc. Amherst Mass., USA). […] The detailed experimental conditions are described below.
(§2) For the calorimetry assay, the FGF21-SABA variant SABA1-FGF21v1 (SEQ ID NO: 132) was used. […] For the SPR studies, SABA1-FGF21v1 and SABA1-FGF21v3 (SEQ ID NO: 134) were examined.
(§3) Serum albumins were dissolved in PBS buffer (10 mM sodium phosphate, 130 mM sodium chloride, pH 7.1) to a concentration of 10 mg/ml, and subsequently diluted to 8-10 μg/ml in 10 mM sodium acetate pH 5.0 for immobilization. Serum albumins were immobilized on a Series S CMS sensor chip using standard ethyl(dimethylaminopropyl) carbodiimide (EDC)/N-hydroxysuccinimide (NHS) chemistry in HBS-EP+ running buffer at 25° C., following general manufacturer guidelines. Flow cell 1 was activated with EDC/NHS and blocked with ethanolamine. […] Kinetic experiments were performed in PBS buffer containing 0.05% tween-20 (running buffer) at either 25° C. or 37° C. […] These samples were injected across flow cells 1-4 for 300 s, with a 420 s dissociation time, at flow rates of 30 μl/min or 60 μl/min to check for mass transfer limitation. All surfaces were regenerated with 2 pulses of 10 mM glycine pH 2.0 at 30 μl/min for 30 s. Raw sensograms were “double-referenced” by subtracting flow cell 1 data from flow cell 2, 3 or 4 data, and then subtracting a separate buffer cycle from each sensogram. The double-referenced sensogram data was fitted to a 1:1 Langmuir model using Biacore T100 Evaluation software version 2.0.2 to determine the association rate constant (ka), the dissociation rate constant (kd), and the equilibrium dissociation constant (KD).

HSA = HSA (Homo sapiens, UniProt P02768); experiment: SPR (Biacore T100) kinetics of FGF21-SABA1 fusions: HSA; assay type: binding; settings: 37° C.
Description: as §1, §2, §3

CySA = biological target: T1, CySA (Macaca fascicularis, UniProt A2V9Z4); experiment: SPR (Biacore T100) kinetics of FGF21-SABA1 fusions: CySA; assay type: binding, cynomolgous monkey; settings: 37° C.
T1 construct: purchased Equitech-Bio CMSA
T1 sequence (A2V9Z4 25-608): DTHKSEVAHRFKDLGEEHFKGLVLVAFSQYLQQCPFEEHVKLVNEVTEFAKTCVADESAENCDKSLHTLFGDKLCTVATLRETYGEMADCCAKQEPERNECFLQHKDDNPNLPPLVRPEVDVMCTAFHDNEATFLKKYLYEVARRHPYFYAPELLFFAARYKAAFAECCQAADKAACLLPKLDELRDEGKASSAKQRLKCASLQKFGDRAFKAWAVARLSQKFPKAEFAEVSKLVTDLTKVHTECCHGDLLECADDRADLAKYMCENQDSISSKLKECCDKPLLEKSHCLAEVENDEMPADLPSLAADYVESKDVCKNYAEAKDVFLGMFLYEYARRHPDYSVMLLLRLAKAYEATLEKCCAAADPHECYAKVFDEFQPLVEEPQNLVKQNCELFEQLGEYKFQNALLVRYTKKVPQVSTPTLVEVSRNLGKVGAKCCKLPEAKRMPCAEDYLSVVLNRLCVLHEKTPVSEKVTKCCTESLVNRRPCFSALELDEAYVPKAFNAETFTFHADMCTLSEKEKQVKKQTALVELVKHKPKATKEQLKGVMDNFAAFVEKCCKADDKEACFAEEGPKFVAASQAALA
Description: as §1, §2, §3

[4] = intravenous, His-tagged FGF21 0.5 mg/kg, SABA1-FGF21v1 0.08 mg/kg

Molecule	activity in HEK β-klotho stable cells (specificity experiment) [1]	stimulation of pERK 1/2 levels in parental HEK cells [2]	increase of t1/2 compared to His-tagged FGF21 [3] [fold]	CL (total body plasma clearance, CLTp) [3, 4] [mL/h/kg]	T½ (terminal half-life) [3, 4] [h]	Vdss (steady-state volume of distribution, Vss) [3, 4] [L/kg]	binding to MuSA (MuSA; flow rate 30 μl/min)	binding to MuSA (MuSA; flow rate 60 μl/min)	ka (HSA; flow rate 30 μl/min) [M⁻¹ s⁻¹]	kd (HSA; flow rate 30 μl/min) [s⁻¹]	ka (HSA; flow rate 60 μl/min) [M⁻¹ s⁻¹]	kd (HSA; flow rate 60 μl/min) [s⁻¹]	ka (CySA; flow rate 30 μl/min) [M⁻¹ s⁻¹]	kd (CySA; flow rate 30 μl/min) [s⁻¹]	ka (CySA; flow rate 60 μl/min) [M⁻¹ s⁻¹]	kd (CySA; flow rate 60 μl/min) [s⁻¹]
FGF1: positive control in the pERK specificity assays [reference compound]	showed activity	did														
SABA1-FGF21v3: SABA1-FGF21 fusion, SEQ ID NO: 134; 299 aa; DNA SEQ ID NO: 177 (protein) MGVSDVPRDLEVVAATPTSLLISWHSYYEQNSYYRITYGETGGNSPVQEFTVPYSQTTATISGLKPGVDYTITVYAVYGSKYYYPISINYRTEIDKPSQHHHHHHGSGSGSGSGSGSGSPIPDSSPLLQFGGQVRQRYLYTDDAQQTEAHLEIREDGTVGGAADQSPESLLQLKALKPGVIQILGVKTSRFLCQRPDGALYGSLHFDPEACSFRELLLEDGYNVYQSEAHGLPLHLPGNKSPHRDPAPRGPARFLPLPGLPPALPEPPGILAPQPPDVGSSDPLSMVGPSQGRSPSYAS			~27	2.4	52.7	0.11	no binding observed up	no binding observed up	6160	0.00103	5870	0.00107	5310	0.0117	4380	0.0136
